According to publication PMC2942077 (Biochemistry, 2010):

Columns and labels:
Assay in all cases: pull-down
[1] = molecular target: T1, RP2 R282W disease-linked mutant, purified recombinant (human, UniProt O75695 1-350, R282W)
T1 sequence (looked up): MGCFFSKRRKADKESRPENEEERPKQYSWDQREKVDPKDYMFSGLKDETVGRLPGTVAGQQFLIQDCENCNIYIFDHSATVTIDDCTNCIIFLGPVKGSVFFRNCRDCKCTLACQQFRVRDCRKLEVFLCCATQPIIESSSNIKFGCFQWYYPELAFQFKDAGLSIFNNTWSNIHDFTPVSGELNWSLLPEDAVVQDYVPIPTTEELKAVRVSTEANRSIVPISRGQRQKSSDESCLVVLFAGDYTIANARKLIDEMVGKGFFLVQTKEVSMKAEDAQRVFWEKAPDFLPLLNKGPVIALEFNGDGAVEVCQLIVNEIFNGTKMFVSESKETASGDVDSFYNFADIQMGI

[2] = molecular target: T2, RP2 L188P disease-causing mutant, purified recombinant (human, UniProt O75695 1-350, L188P)
T2 sequence (looked up): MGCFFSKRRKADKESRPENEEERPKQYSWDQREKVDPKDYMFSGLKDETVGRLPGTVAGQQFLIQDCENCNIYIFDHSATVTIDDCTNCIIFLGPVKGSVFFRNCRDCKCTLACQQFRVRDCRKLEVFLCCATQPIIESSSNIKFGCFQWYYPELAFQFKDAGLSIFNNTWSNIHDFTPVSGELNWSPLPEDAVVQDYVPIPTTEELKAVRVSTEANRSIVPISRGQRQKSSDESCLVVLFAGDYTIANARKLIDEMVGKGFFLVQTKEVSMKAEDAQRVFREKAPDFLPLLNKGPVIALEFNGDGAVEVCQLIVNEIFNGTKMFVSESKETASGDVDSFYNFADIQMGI

[3] = molecular target: T3, RP2 R118H disease-linked mutant, purified recombinant (human, UniProt O75695 1-350, R118H)
T3 sequence (looked up): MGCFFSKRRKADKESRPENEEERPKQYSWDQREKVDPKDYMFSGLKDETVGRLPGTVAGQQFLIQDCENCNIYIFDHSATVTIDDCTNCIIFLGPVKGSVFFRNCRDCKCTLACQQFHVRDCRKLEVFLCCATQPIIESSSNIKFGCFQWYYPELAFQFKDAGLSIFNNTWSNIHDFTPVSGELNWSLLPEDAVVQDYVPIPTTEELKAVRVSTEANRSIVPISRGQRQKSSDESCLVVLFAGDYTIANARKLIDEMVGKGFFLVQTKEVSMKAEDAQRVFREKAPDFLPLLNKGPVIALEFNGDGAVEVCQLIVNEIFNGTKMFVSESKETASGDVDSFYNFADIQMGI

[4] = molecular target: T4, purified recombinant wild-type human RP2 (human, UniProt O75695 1-350)
T4 sequence (looked up): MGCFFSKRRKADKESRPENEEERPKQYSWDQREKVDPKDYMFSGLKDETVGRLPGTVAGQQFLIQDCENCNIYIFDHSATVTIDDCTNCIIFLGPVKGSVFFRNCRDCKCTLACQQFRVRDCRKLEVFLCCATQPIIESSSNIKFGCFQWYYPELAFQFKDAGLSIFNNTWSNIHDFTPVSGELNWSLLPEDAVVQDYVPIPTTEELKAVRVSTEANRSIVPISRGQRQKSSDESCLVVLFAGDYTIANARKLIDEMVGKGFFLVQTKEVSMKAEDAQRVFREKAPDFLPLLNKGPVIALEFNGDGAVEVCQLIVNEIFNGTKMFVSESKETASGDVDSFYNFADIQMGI

binding result [1]: binds
binding result [2]: binds
binding result [3]: binds
binding result [4]: binds
B1: GST fusion protein containing the N-terminal domain of NSF (domain or fragment, Chinese hamster, UniProt P18708 1-205, looked up)
chain: MAGRSMQAARCPTDELSLSNCAVVSEKDYQSGQHVIVRTSPNHKYIFTLRTHPSVVPGSVAFSLPQRKWAGLSIGQEIEVALYSFDKAKQCIGTMTIEIDFLQKKNIDSNPYDTDKMAAEFIQQFNNQAFSVGQQLVFSFNDKLFGLLVKDIEAMDPSILKGEPASGKRQKIEVGLVVGNSQVAFEKAENSSLNLIGKAKTKENR
